Measured values published in patent publication US8877192B2, “Rage fusion proteins and methods of use” (TransTech Pharma, LLC, priority 2004, dated 2014).
Like-named read-outs stand apart in the source and are kept apart here.

Assays:
[1] = listed as human sRAGE; cited from earlier work
[2] = cited from earlier work
[3] = test system: transgenic mice expressing the human Swedish mutant amyloid precursor protein (APP); experiment: Mouse model of AD (APP transgenic mice); assay type: in vivo; conditions: treated for 3 months, versus vehicle and human IgG1
Description: Experiments were performed to evaluate whether TTP-4000 could affect amyloid formation and cognitive dysfunction in a mouse model of AD. The experiments utilized transgenic mice expressing the human Swedish mutant amyloid precursor protein (APP) under the control of the PDGF-B chain promoter. Over time, these mice generate high levels of the RAGE ligand, amyloid beta (Aβ).
The APP mice (male) used in this experiment were designed by microinjection of the human APP gene (with the Swedish and London mutations) into mouse eggs under the control of the platelet-derived growth factor B (PDGF-B) chain gene promoter. The mice were generated on a C57BL/6 background and were developed by Molecular Therapeutics Inc. Animals were fed ad libitum and maintained by brother sister mating. The mice generated from this construct develop amyloid deposits starting at 6 months of age. Animals were aged for 6 months and then maintained for 90 days and sacrificed for amyloid quantification.
APP transgenic mice were administered vehicle or TTP4000 every other day [qod (i.p.)] for 90 days starting at 6 months of age. At the end of the experiment, animals were sacrificed and examined for Aβ plaque burden in the brain (i.e., plaque number). A 6-month control APP group was used to determine the baseline of amyloid deposits. In addition, at the end of the study, the animals were subjected to behavioral (Morris water maze) analysis. The investigators were blinded to the study compounds. Samples were given to the mice at 0.25 ml/mouse/every other day.
For histological examination, the animals were anesthetized with an intraperitoneal injection (IP) of sodium pentobarbital (50 mg/kg). The animals were transcardially perfused with 4° C., phosphate-buffered saline (PBS) followed by 4% paraformaldehyde. The brains were removed and placed in 4% paraformaldehyde over night. The brains were processed to paraffin and embedded. Ten serial 30-μm thick sections through the brain were obtained. Sections were subjected to primary antibody overnight at 4° C. (Aβ peptide antibody) in order to detect the amyloid deposits in the brain of the transgenic animals (Guo et al., J. Neurosci., 22:5900-5909 (2002)). Sections were washed in Tris-buffered saline (TBS) and secondary antibody was added and incubated for 1 hour at room temperature. After washing, the sections were incubated as instructed in the Vector ABC Elite kit (Vector Laboratories) and stained with […] (DAB). The reactions were stopped in water and cover-slipped after treatment with xylene. The amyloid area in each section was determined with a computer-assisted image analysis system, consisting of a Power Macintosh computer equipped with a Quick Capture frame grabber card, Hitachi CCD camera mounted on an Olympus microscope and camera stand. NIH Image Analysis Software, v. 1.55 was used. The images were captured and the total area of amyloid was determined over the ten sections. A single operator blinded to treatment status performed all measurements. Summing the amyloid volumes of the sections and dividing by the total number of sections was done to calculate the amyloid volume.
For quantitative analysis, an enzyme-linked immunosorbent assay (ELISA) was used to measure the levels of human total Aβ, Aβtotal and Aβ1-42 in the brains of APP transgenic mice (Biosource International, Camarillo, Calif.). Aβtotal and Aβ1-42 were extracted from mouse brains by guanidine hydrochloride and quantified as described by the manufacturer. […]

amphoterin (Ampho) = biological target: T1, amphoterin (Ampho) (Homo sapiens, UniProt P09429); experiment: In vitro ligand binding (ELISA) to immobilized amphoterin; conditions: increasing dilutions of fusion protein; FIG. 7
T1 sequence (P09429 1-215): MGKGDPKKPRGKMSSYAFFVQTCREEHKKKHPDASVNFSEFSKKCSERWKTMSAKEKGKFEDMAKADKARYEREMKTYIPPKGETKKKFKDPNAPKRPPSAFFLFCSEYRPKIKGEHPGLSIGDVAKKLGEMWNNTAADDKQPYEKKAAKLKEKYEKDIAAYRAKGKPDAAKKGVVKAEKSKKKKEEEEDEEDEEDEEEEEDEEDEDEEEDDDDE
Description: (§1) For example, the RAGE fusion protein may be used in a binding assay to identify potential RAGE ligands. In one example embodiment of such a binding assay, a known RAGE ligand may coated onto a solid substrate (e.g., Maxisorb plates) at a concentration of about 5 micrograms per well, where each well contains a total volume of about 100 microliters (μL). The plates may be incubated at 4° C. overnight to allow the ligand to absorb. Alternatively, shorter incubation periods at higher temperature (e.g., room temperature) may be used. […] The fusion protein bound to the immobilized ligand may be detected in a variety of ways. […] The bound complex may be detected by adding the alkaline phosphatase substrate, para-nitrophenylphosphate (PNPP), and measuring conversion of PNPP to para-nitrophenol (PNP) as an increase in absorbance at 405 nm. […] Binding was detected by the addition of an immunodetection complex containing a monoclonal mouse anti-human IgG1 diluted 1:11,000 to a final assay concentration (FAC) of 21 ng/100 μL, a biotinylated goat anti-mouse IgG diluted 1:500, to a FAC of […], and an avidin-linked alkaline phosphatase. […] Binding of the complex to the immobilized fusion protein was quantified by measuring conversion of PNPP to para-nitrophenol (PNP) which was measured spectrophotometrically at 405 nm. […]

S100b (S100) = biological target: T2, S100b (S100) (Homo sapiens, UniProt P04271); experiment: In vitro ligand binding (ELISA) to immobilized S100b; conditions: increasing dilutions of fusion protein; FIG. 7
T2 sequence (P04271 1-92): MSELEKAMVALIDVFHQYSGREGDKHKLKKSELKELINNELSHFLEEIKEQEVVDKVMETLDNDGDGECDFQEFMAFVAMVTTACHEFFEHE
Description: as §1

amyloid-beta (Abeta) = biological target: T3, amyloid-beta (Abeta) (Homo sapiens, UniProt P05067); experiment: In vitro ligand binding (ELISA) to immobilized amyloid-beta; conditions: increasing dilutions of fusion protein; FIG. 7
T3 construct: Amyloid Beta (1-40) from Biosource; purchased Biosource
Description: as §1

T3 sequence (P05067 672-711 limits assumed): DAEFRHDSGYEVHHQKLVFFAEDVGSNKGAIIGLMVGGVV

sRAGE: soluble RAGE: the RAGE protein that does not include the transmembrane region or the cytoplasmic tail
half-life in plasma [1]: about 2 hours
half-life ([2]; assessed by retention of immunoreactivity sRAGE): less than 2 hours

B1: rodent sRAGE: rodent soluble RAGE, literature half-life comparator (protein, UniProt Q63495 23-341, looked up)
extracellular domain: GQNITARIGEPLMLSCKGAPKKPTQKLEWKLNTGRTEAWKVLSPQGDPWDSVARILPNGSLLLPAIGIVDEGTFRCRATNRLGKEVKSNYRVRVYQIPGKPEIVNPASELTANVPNKVGTCVSEGSYPAGTLSWHLDGKPLIPDGKGTVVKEETRRHPETGLFTLRSELTVTPAQGGTTPTYSCSFSLGLPRRRPLNTAPIQPRVREPLPPEGIQLLVEPEGGTVAPGGTVTLTCAISAQPPPQIHWIKDGTPLPLAPSPVLLLPEVGHEDEGIYSCVATHPSHGPQESPPVNIRVTETGDEGQAAGSVDGSGLGTLAL
modifications: extracellular domain
notes: rodent soluble RAGE, literature half-life comparator
half-life ([2]; in normal and diabetic rats): approximately 20 hours

B2: mouse sRAGE: mouse soluble RAGE used as comparator in the AD mouse model (protein, UniProt Q62151 23-340, looked up)
extracellular domain: GQNITARIGEPLVLSCKGAPKKPPQQLEWKLNTGRTEAWKVLSPQGGPWDSVARILPNGSLLLPATGIVDEGTFRCRATNRRGKEVKSNYRVRVYQIPGKPEIVDPASELTASVPNKVGTCVSEGSYPAGTLSWHLDGKLLIPDGKETLVKEETRRHPETGLFTLRSELTVIPTQGGTHPTFSCSFSLGLPRRRPLNTAPIQLRVREPGPPEGIQLLVEPEGGIVAPGGTVTLTCAISAQPPPQVHWIKDGAPLPLAPSPVLLLPEVGHEDEGTYSCVATHPSHGPQESPPVSIRVTETGDEGPAEGSVGESGLGTLA
modifications: extracellular domain
notes: mouse soluble RAGE used as comparator in the AD mouse model
Aβ plaques in the brain ([3]; FIG. 14A): fewer Aβ plaques
cognitive dysfunction (Morris water maze) ([3]; FIG. 14B): less cognitive dysfunction

B3: TTP-3000: three domain RAGE fusion protein (SEQ ID NO: 35): human RAGE amino acids 1-136 linked to CH2 and CH3 domains of human IgG (protein)
chain: MAAGTAVGAWVLVLSLWGAVVGAQNITARIGEPLVLKCKGAPKKPPQRLEWKLNTGRTEAWKVLSPQGGGPWDSVARVLPNGSLFLPAVGIQDEGIFRCQAMNRNGKETKSNYRVRVYQIPGKPEIVDSASELTAGPSVFLFPPKPKDTLMISRTPEVTCVVVDVSHEDPEVKFNWYVDGVEVHNAKTKPREEQYNSTYRVVSVLTVLHQDWLNGKEYKCKVSNKALPAPIEKTISKAKGQPREPQVYTLPPSRDELTKNQVSLTCLVKGFYPSDIAVEWESNGQPENNYKTTPPVLDSDGSFFLYSKLTVDKSRWQQGNVFSCSVMHEALHNHYTQKSLSLSPGK
binding to immobilized amphoterin (absorbance at 405 nm) (amphoterin (Ampho)): specifically interact
binding to immobilized S100b (absorbance at 405 nm) (S100b (S100)): specifically interact
binding to immobilized amyloid-beta (absorbance at 405 nm) (amyloid-beta (Abeta)): specifically interact
